Experimental data from patent US20100029554A1, “Composition and Methods for Treatment of Congestive Heart Failure” (Amylin Pharmaceuticals, Inc., priority 2006, published 2010).
Where no end group is shown, it is not given here. [ ]: non-standard residue; d: D form. Gly(octyl) = CCCCCCCC[C@H](N)C(=O)O

T1: GLP-1 receptor, endogenous in RINm5f cells (rat (RIN-m5F are called rat pancreas …, UniProt P32301 22-463))
T1 sequence (looked up): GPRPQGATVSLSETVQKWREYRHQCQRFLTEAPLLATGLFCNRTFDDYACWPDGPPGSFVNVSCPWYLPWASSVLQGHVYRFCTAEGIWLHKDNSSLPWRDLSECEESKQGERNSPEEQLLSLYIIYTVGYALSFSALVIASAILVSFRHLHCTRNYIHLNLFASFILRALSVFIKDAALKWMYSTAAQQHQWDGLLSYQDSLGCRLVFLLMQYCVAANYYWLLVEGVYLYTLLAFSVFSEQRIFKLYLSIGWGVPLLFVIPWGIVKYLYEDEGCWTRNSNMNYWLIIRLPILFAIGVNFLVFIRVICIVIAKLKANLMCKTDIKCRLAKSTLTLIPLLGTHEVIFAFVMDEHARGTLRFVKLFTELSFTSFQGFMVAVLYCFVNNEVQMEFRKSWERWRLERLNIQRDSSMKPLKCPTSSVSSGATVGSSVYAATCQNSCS

T2: GLP-1 receptor, endogenous in RINm5f cells (rat (RIN-m5F are called rat pancreas insulinoma cells)), P32301
T2 chain: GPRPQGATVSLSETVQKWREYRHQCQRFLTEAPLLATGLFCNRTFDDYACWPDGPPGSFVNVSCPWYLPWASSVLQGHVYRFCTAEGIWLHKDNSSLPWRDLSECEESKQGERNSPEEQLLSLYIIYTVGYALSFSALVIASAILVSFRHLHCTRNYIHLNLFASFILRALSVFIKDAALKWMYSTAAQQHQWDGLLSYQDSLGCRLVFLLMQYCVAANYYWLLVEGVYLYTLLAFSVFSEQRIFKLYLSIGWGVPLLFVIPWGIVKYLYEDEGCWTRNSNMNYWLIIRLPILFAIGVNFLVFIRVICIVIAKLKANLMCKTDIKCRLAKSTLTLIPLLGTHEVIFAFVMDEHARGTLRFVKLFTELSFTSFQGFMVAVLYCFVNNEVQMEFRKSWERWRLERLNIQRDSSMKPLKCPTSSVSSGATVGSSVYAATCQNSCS


Assays:
NH/Swiss mice = test: Glucose lowering assay; format: in vivo, mouse; settings: IP, 2 nmol/kg, change in blood glucose relative to vehicle
Protocol: Female NH/Swiss mice (˜8-20 weeks of age), (Harlan, Indianapolis, Ind., USA), housed 3 mice per cage, are allowed ad libitum access to food and water until the start of the experiment. At two hours prior to treatment, access to food is restricted.
At the time of treatment, the tip of the tail is pricked with a needle to obtain 1 μl blood as a “pre-treatment” control blood sample. Immediately thereafter, each mouse is injected intraperitoneally (IP) with a test sample (1 nmol/kg or 2 nmol/kg) or 200 μl vehicle (10% DMSO saline). Additional blood samples are collected at 30, 60, 120, 180, and 240 minutes after injection.
Blood glucose is measured with a glucose oxidase biosensor (OneTouch® Ultra® (LifeScan, Inc., a Johnson & Johnson Company, Milpitas, Calif.)). At each time point, the effect of the test sample is expressed as the percent change in blood glucose relative to mice injected with vehicle only. Test samples and vehicle controls are also compared to their respective “pre-treatment” controls.
Significant test sample effects are identified by ANOVA (p<0.05). Where a significant difference existed, test means are compared to the control mean with Dunnett's post test using GraphPad Prism version 4.00 for Windows, GraphPad Software, San Diego Calif. USA, www.graphpad.com).

NIH:Swiss mice = test: Food intake assay; format: in vivo, mouse; settings: IP, dose 10 nmol/kg
Protocol: All mice (NIH:Swiss mice) are housed in a stable environment of 22 (±2)° C., 60 (±10)% humidity and a 12:12 light:dark cycle; with lights on at 0300. Mice are housed in groups of three in standard cages with ad libitum access to food (Teklad: LM 485; Madison, Wis.) and water except as noted, for at least two weeks before the experiments.
All experiments are conducted between the hours of 0700 and 0900. The mice are food deprived (food removed at 1530 hr from all animals on day prior to experiment). […] The food pellet is weighed at 30-minute, 1-hr, and 2-hr intervals to determine the amount of food eaten.
Significant test sample effects are identified by ANOVA (p<0.05). Where a significicant difference exists, test means are compared to the control mean using Dunnett's test. One-way ANOVA with Dunnett's post test is performed using GraphPad Prism version 3.01 for Windows, GraphPad Software, San Diego Calif.

[1] = target: T1, GLP-1 receptor, endogenous in RINm5f …; test: cell-based or functional assay
[2] = target: T1, GLP-1 receptor, endogenous in RINm5f …; test: 125I-GLP-1 displacement, RINm5f membranes
[3] = target: T2, GLP-1 receptor, endogenous in RINm5f …; test: cell-based or functional assay
[4] = target: T2, GLP-1 receptor, endogenous in RINm5f …; test: 125I-GLP-1 displacement, RINm5f membranes

| Molecule | cAMP, CYCLASE GLP/GIP/CT (RIN) EC50 [1] | IC50 [2] | cAMP, CYCLASE GLP/GIP/CT (RIN) EC50 [3] | other results |
| --- | --- | --- | --- | --- |
| CC[C@H](C)[C@H](NC(=O)[C@H](CC(C)C)NC(=O)[C@H](Cc1c[nH]c2ccccc12)NC(=O)[C@H](CCC(=O)O)NC(=O)[C@@H](NC(=O)[C@H](Cc1ccccc1)NC(=O)[C@H](CC(C)C)NC(=O)[C@H](CCCNC(=N)N)NC(=O)[C@@H](NC(=O)[C@H](C)NC(=O)[C@H](CCCCN)NC(=O)[C@H](CCC(=O)O)NC(=O)[C@H](CCC(=O)O)NC(=O)[C@H](CC(C)C)NC(=O)[C@H](CCC(N)=O)NC(=O)[C@H](CCCCN)NC(=O)[C@H](CO)NC(=O)[C@H](CC(C)C)NC(=O)[C@H](CC(=O)O)NC(=O)[C@H](CO)NC(=O)[C@@H](NC(=O)[C@H](Cc1ccccc1)NC(=O)[C@@H](NC(=O)CNC(=O)[C@H](CCC(=O)O)NC(=O)CNC(=O)[C@@H](N)Cc1c[nH]cn1)[C@@H](C)O)[C@@H](C)O)C(C)C)[C@@H](C)CC)C(=O)N[C@@H](CCC(N)=O)C(=O)NCC(=O)NCC(=O)N1CCC[C@H]1C(=O)N[C@@H](CO)C(=O)N[C@@H](CCCCN)C(=O)N[C@@H](CCC(=O)O)C(=O)N[C@H](C(=O)N[C@H](C(=O)N[C@@H](CO)C(=O)O)[C@@H](C)CC)[C@@H](C)CC [Cmpd 5103] | – | – | – | GLU LOWERING AUC240 @2 nmol/kg (NH/Swiss mice): −17%; FOOD INTAKE at 60 min (NIH:Swiss mice): −42% |
| HGEGTFTSDLSKQLEEEAVRLFIEWLKNPGGKEIIS (tested as C-terminal acid (-OH)) [Cmpd 5296] | 0.145 nM | 4 nM | – | – |
| HAEGTFTSDVSSYLEGQAAKEFIAWLVKGRGGGGIPI (modifications not checked) [Cmpd 4887] | – | – | 0.22 nM | IC50 [4]: 0.17 nM |
| HGEGTFTSDVTQQLEEEAVRLFIEWLKQGGPSSGAPPPS-NH2 [Cmpd 5099] | 1.29 nM | 5 nM | – | – |
| HGEGTYTNDVSSYLEGQAARLFIEWLQGGPSSGAPPPS-NH2 (also: table prints an unexplained underscore after L26) [Cmpd 5183] | 0.21 nM | 0.31 nM | – | – |
| HAEGTFTSDVSSYLEGQAAKEFIAWLVKGRGGG (not fully specified; modifications not checked) [Cmpd 4844, GLP-1-(7-37)-GG(S)-2,6-diamino-1-(thiazolidin-3-y1)hexan-1-one amide] | – | – | 0.13 nM | – |
| HAEGTFTSDVSSYLEGQAAKEFIAWLVKGRGGG (not fully specified; modifications not checked) [Cmpd 4845, GLP-1-(7-37)-GG-(S)-2,6-diamino-1-(thiazolidin-2-cyano-3-y1)hexan-1-one amide] | – | – | 0.4 nM | – |
| HGEGTFTSDLSKQAEEEAVRLFIEWLKNGKPKK[Gly(octyl)]RYS-OH (N-terminus assumed; SMILES CCCCCCCC[C@H](NC(=O)[C@H](CCCCN)NC(=O)[C@H](CCCCN)NC(=O)[C@@H]1CCCN1C(=O)[C@H](CCCCN)NC(=O)CNC(=O)[C@H](CC(N)=O)NC(=O)[C@H](CCCCN)NC(=O)[C@H](CC(C)C)NC(=O)[C@H](Cc1c[nH]c2ccccc12)NC(=O)[C@H](CCC(=O)O)NC(=O)[C@@H](NC(=O)[C@H](Cc1ccccc1)NC(=O)[C@H](CC(C)C)NC(=O)[C@H](CCCNC(=N)N)NC(=O)[C@@H](NC(=O)[C@H](C)NC(=O)[C@H](CCC(=O)O)NC(=O)[C@H](CCC(=O)O)NC(=O)[C@H](CCC(=O)O)NC(=O)[C@H](C)NC(=O)[C@H](CCC(N)=O)NC(=O)[C@H](CCCCN)NC(=O)[C@H](CO)NC(=O)[C@H](CC(C)C)NC(=O)[C@H](CC(=O)O)NC(=O)[C@H](CO)NC(=O)[C@@H](NC(=O)[C@H](Cc1ccccc1)NC(=O)[C@@H](NC(=O)CNC(=O)[C@H](CCC(=O)O)NC(=O)CNC(=O)[C@@H](N)Cc1c[nH]cn1)[C@@H](C)O)[C@@H](C)O)C(C)C)[C@@H](C)CC)C(=O)N[C@@H](CCCNC(=N)N)C(=O)N[C@@H](Cc1ccc(O)cc1)C(=O)N[C@@H](CO)C(=O)O, tested as C-terminal acid (-OH)) [Cmpd 5268] | 0.489 nM | 0.11 nM | – | – |
| HGEGTFTSDLSKQLEEEAVRLFIEFLKNGKPKK[Gly(octyl)]RYS-OH (N-terminus assumed; SMILES CCCCCCCC[C@H](NC(=O)[C@H](CCCCN)NC(=O)[C@H](CCCCN)NC(=O)[C@@H]1CCCN1C(=O)[C@H](CCCCN)NC(=O)CNC(=O)[C@H](CC(N)=O)NC(=O)[C@H](CCCCN)NC(=O)[C@H](CC(C)C)NC(=O)[C@H](Cc1ccccc1)NC(=O)[C@H](CCC(=O)O)NC(=O)[C@@H](NC(=O)[C@H](Cc1ccccc1)NC(=O)[C@H](CC(C)C)NC(=O)[C@H](CCCNC(=N)N)NC(=O)[C@@H](NC(=O)[C@H](C)NC(=O)[C@H](CCC(=O)O)NC(=O)[C@H](CCC(=O)O)NC(=O)[C@H](CCC(=O)O)NC(=O)[C@H](CC(C)C)NC(=O)[C@H](CCC(N)=O)NC(=O)[C@H](CCCCN)NC(=O)[C@H](CO)NC(=O)[C@H](CC(C)C)NC(=O)[C@H](CC(=O)O)NC(=O)[C@H](CO)NC(=O)[C@@H](NC(=O)[C@H](Cc1ccccc1)NC(=O)[C@@H](NC(=O)CNC(=O)[C@H](CCC(=O)O)NC(=O)CNC(=O)[C@@H](N)Cc1c[nH]cn1)[C@@H](C)O)[C@@H](C)O)C(C)C)[C@@H](C)CC)C(=O)N[C@@H](CCCNC(=N)N)C(=O)N[C@@H](Cc1ccc(O)cc1)C(=O)N[C@@H](CO)C(=O)O, tested as C-terminal acid (-OH)) [Cmpd 5269] | 1.31 nM | 0.088 nM | – | – |
| HAEGTFTSDVSSYLEGQAAKEFIAWLVKGRPSGGGIPI (modifications not checked) [Cmpd 4888] | – | – | 0.17 nM | IC50 [4]: 0.13 nM |
| HAEGTFTSDVSSYLEGQAAKEFIAWLVKGRGGGIPI (modifications not checked) [Cmpd 4957] | – | – | 0.51 nM | IC50 [4]: 0.1 nM |
